Data reported in article PMC3183026 (Molecular Biology of the Cell, 2011).

Target: DCC (endogenous, embryonic rat cortical neurons) (rat (endogenous in E18 cortical neurons), UniProt Q63155 26-1445)
Test: co-IP

Sequence of DCC (endogenous, embryonic rat cortical neurons) (Q63155 26-1445): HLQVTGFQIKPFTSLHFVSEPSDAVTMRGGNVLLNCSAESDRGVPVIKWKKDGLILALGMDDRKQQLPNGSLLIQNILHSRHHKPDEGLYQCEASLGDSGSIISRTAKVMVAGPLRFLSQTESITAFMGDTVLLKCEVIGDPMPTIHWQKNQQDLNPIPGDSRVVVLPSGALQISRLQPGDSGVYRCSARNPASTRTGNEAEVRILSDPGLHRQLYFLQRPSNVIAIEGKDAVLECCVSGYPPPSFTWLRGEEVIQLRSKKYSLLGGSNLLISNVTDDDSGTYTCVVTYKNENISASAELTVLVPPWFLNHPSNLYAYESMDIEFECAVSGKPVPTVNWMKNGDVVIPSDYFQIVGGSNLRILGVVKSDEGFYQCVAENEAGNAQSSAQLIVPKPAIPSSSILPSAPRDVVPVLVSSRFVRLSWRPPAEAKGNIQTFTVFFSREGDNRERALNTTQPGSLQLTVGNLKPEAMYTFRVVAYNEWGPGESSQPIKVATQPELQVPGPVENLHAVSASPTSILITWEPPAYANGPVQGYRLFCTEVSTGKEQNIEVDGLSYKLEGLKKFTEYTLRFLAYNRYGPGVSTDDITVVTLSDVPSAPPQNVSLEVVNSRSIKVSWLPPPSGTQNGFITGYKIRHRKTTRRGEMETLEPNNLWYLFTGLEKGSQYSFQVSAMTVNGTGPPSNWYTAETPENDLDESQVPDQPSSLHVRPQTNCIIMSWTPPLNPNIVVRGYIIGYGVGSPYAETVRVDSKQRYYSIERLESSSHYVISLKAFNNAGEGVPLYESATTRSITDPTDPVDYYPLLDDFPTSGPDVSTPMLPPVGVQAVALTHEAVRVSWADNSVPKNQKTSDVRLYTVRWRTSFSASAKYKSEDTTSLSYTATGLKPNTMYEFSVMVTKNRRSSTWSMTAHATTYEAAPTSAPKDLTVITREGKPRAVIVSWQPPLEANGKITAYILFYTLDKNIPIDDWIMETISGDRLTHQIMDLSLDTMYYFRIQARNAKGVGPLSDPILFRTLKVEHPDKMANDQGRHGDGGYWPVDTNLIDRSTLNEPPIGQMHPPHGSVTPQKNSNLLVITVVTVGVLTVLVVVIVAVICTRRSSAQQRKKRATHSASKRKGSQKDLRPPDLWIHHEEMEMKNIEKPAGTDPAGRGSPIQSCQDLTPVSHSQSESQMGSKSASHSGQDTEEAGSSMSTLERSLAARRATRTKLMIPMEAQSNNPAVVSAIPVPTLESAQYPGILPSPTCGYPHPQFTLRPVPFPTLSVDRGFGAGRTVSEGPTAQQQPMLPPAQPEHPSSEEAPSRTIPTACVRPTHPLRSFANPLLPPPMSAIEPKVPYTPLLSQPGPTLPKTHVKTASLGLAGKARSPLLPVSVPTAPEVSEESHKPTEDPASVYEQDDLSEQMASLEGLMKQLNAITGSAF

B1: ezrin (endogenous, embryonic rat cortical neurons) (natural protein)
chain: MPKPINVRVTTMDAELEFAIQPNTTGKQLFDQVVKTIGLREVWYFGLQYVDNKGFPTWLKLDKKVSAQEVRKENPVQFKFRAKFYPEDVADELIQDITQKLFFLQVKEGILSDEIYCPPETAVLLGSYAVQAKFGDYNKEMHKSGYLSSERLIPQRVMDQHKLSRDQWEDRIQVWHAEHRGMLKDSAMLEYLKIAQDLEMYGINYFEIKNKKGTDLWLGVDALGLNIYEKDDKLTPKIGFPWSEIRNISFNDKKFVIKPIDKKAPDFVFYAPRLRINKRILQLCMGNHELYMRRRKPDTIEVQQMKAQAREEKHQKQLERQQLETEKKRRETVEREKEQMLREKEELMLRLQDFEQKTKRAEKELSEQIEKALQLEEERRRAQEEAERLEADRMAALRAKEELERQAQDQIKSQEQLAAELAEYTAKIALLEEARRRKEDEVEEWQHRAKEAQDDLVKTKEELHLVMTAPPPPPPPVYEPVNYHVQEGLQDEGAEPMGYSAELSSEGILDDRNEEKRITEAEKNERVQRQLLTLSNELSQARDENKRTHNDIIHNENMRQGRDKYKTLRQIRQGNTKQRIDEFEAM
**Q.** B1 was tested. Which “fold increase relative to unstimulated neurons” value did it give?
**A.** 6 fold
